From doi:10.1101/2024.01.29.577677

What follows are substances tested against human ACE2 (human) (UniProt Q9BYF1) (assay: SPR).

| Substance | fold increase in affinity relative to BA.2.86 RBD [fold] |
| --- | --- |
| BA.2.86-D450N RBD (domain or fragment) | 3 |
| BA.2.86-H445V RBD (domain or fragment) | 3 |
| BA.2.86-P486F RBD (domain or fragment) | 3 |
